In US20230080534A1, “SEMG2 ANTIBODY AND USE THEREOF” (SHANGHAI BIOTROY BIOTECHNIQUE CO., LTD., priority 2020, published 2023):
No end group written: not given here.

Assays:
CD27 protein = target: T1, CD27 protein (Homo sapiens, UniProt P26842); experiment: ELISA binding of BSA-conjugated SEMG2 (497-509) polypeptides to CD27; details: versus negative BSA control
T1 construct: the extracellular region of human CD27 protein fused to the Fe fragment of human antibody
T1 sequence (P26842 20-191 limits assumed): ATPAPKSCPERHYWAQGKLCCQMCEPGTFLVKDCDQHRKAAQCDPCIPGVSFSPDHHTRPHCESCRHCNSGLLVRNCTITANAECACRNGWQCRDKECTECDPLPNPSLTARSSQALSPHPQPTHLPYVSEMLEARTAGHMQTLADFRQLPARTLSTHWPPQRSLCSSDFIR
Description: (§1) FIG. 6 depicts the binding between SEMG2 epitope polypeptides and CD27, and its competitive inhibition of full-length SEMG2 binding to CD27. […] As shown in the figure, different concentrations of peptides are firstly co-incubated with CD27-Fc for binding, and then added into the micro-reaction plate pre-coated with SEMG2 protein. After co-incubation, the unconjugated molecules are washed off, and anti-Fc secondary antibody-HRP are then used for detecting and developing.
These mutant plasmids and CD27 expression vector were co-transfected into HEK293 cells, and the degree of GFP-fused 1-13 polypeptide variants binding to CD27 was detected by co-immunoprecipitation assay. […] Therefore, it can be seen that the amino acids at positions 497, 498, 499, 500, 501, 502, 503, 504, 505, 506 and 508 of SEMG2 have obvious effects on the binding to CD27. The peptide sequence 497-509 was coupled to BSA, and coated onto a 96-well microplate. CD27-hFc at different concentrations was used as the primary antibody to detect the ability of CD27 to bind to the peptide sequence.

[1] = target: T2, binding between full-length SEMG2 and CD27 (Homo sapiens, UniProt P26842); experiment: Peptide competition ELISA: CD27-Fc pre-incubated with peptide, added to SEMG2-coated plate; details: different concentrations of peptide co-incubated with CD27-Fc
T2 construct: the extracellular region of human CD27 protein fused to the Fe fragment of human antibody
T2 sequence (P26842 20-191 limits assumed): T1 sequence (P26842 20-191 limits assumed)
Description: as §1

mouse CD27 = target: T3, mouse CD27 (Mus musculus, UniProt P41272); experiment: Co-immunoprecipitation of GFP-fused SEMG2 fragments with mouse CD27 in co-transfected HEK293 cells; type: binding; details: GFP-fused fragment co-transfected with mouse CD27 into HEK293 cells
T3 construct: HA; expressed in transfected cells; host or cells: HEK293
T3 sequence (P41272 24-250): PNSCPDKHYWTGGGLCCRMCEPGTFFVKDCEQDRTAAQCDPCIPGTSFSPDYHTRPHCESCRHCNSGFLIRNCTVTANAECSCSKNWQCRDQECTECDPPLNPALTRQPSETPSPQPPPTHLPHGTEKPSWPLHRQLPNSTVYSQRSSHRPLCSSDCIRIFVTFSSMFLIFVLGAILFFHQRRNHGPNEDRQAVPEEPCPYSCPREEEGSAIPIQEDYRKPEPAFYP
Description: (§2) In co-immunoprecipitation experiment, cells were lysed in IP buffer (Thermo Scientific) and Roche complete protease inhibitor for 10 minutes, followed by the addition of benzonase (sigma) for 25 minutes at room temperature. The lysate was then centrifuged at 15,000 rpm at 4° C. to remove the precipitate. The supernatant was then incubated with primary antibody slowly rotated overnight at 4° C., followed by the addition of protein A or protein G dynabeads and incubated at 4° C. for 2 hours, washed for 4 times in PBST (PBS with 0.01% Tween 20), eluted with 50 mM DTT in SDS sample buffer for 10 minutes at 100° C., separated with SDS, and immunoblotted as previously described.
To further confirm the key amino acids in the binding between SEMG2-P5 sequence and CD27, SEMG2(497-509) fragment was selected and named as SEMG2-P7 (the specific sequence is QIEKLVEGKSQIQ, abbreviated as P7 or SP7). SEMG2-P7(497-509), SEMG2-P5(positive control), SEMG2-P4 (negative control) or SEMG2-P6 (negative control) was co-transfected with CD27 into HEK293 cells respectively, including human CD27 and mouse CD27. […] This co-immunoprecipitation experiment confirmed that SEMG2(497-509) is the main structure that binds to human and mouse CD27.

human CD27 = target: T4, human CD27 (Homo sapiens, UniProt P26842); experiment: Co-immunoprecipitation of GFP-fused SEMG2 fragments with CD27 in co-transfected HEK293 cells; type: binding; details: GFP-fused fragment co-transfected with CD27 into HEK293 cells
T4 construct: HA; expressed in transfected cells; host or cells: HEK293
T4 sequence (P26842 20-260): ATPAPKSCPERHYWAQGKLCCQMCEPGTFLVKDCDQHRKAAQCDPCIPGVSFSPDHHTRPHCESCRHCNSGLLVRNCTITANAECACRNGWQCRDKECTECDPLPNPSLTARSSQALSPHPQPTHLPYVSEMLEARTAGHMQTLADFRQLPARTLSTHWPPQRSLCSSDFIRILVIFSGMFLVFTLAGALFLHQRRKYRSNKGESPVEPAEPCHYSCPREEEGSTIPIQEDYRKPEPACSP
Description: as §2
To further confirm which part of SEMG-2 binds to CD27, fragments of SEMG2 protein were designed. The amino acid sequence of full-length SEMG2 protein (SEQ ID NO:1) was divided into 6 segments of sequences, fused with GFP and named as SEMG2-P1, SEMG2-P2, SEMG2-P3, SEMG2-P4, SEMG2-P5 and SEMG2-P6 (See Table 1 for specific sequences, with corresponding abbreviation as P1-P6 respectively). Plasmids expressing these amino acid sequences were co-transfected with CD27 into HEK293 cells, and co-immunoprecipitation experiments were performed to identify the main fragment of SEMG2 that binds to CD27. […]

**Q.** With “BSA-conjugated human SEMG2 (497-509) polypeptide: human SEMG2 (497-509) peptide coupled to BSA (QIEKLVEGKSQIQ; also: coupled to BSA, site not given here)” as the substance, how does the “binding to CD27 protein on the microplate” value (CD27 protein) read?
**A.** Its value is “can bind”.

**Q.** With “QIAKLVEGKSQ [SEMG2-derived polypeptide derivative]” as the substance, how does the “inhibitory effect on the binding between full-length SEMG2 and CD27” value (“inhibitory effect” for short) [1] read?
**A.** The value was “can inhibit the binding”.

**Q.** “QIEKLVEGKSQ (UNSURE (1)..(11) Epitope peptides)” was tested. Which “inhibitory effect” value [1] did it give?
**A.** The value was “can inhibit the binding”.

**Q.** How did the “inhibitory effect” value [1] turn out when “QIEKLVEGKSQI (UNSURE (1)..(12) Epitope peptides)” was run?
**A.** The value was “can inhibit the binding”.

**Q.** What does the source list for “QIEKLVEGKSQIQ (UNSURE (1)..(13) Epitope peptides) [SEMG2-P7]”?
**A.** binding to mouse CD27 (co-immunoprecipitation) (mouse CD27): bind; inhibitory effect on the binding between full-length SEMG2 and CD27 [1]: can inhibit the binding; binding to CD27 (co-immunoprecipitation) (human CD27): bind
